Results on one molecule are retold here after patent US20230399384A1.

Like-named read-outs stand apart in the source and are kept apart here.

What all share (details): remark: other sources report otherwise
The target of test [1] is trimeric prefusion S protein of SARS-CoV-2 (SARS-CoV-2), P0DTC2.
Test [2] concerns the target T1, sCoV2-RBD (Fc-tagged RBD of SARS-CoV-2 S protein) (SARS-CoV-2; human), P0DTC2.
The target of test [3] is T1, sCoV2-RBD (Fc-tagged RBD of SARS-CoV-2 …). This is another data set of the same source.
Test [4] shares this target. Description: ELISA titration on coated sCoV2-RBD. Background: In an ELISA, binding on a coated surface is turned into a signal by an enzyme label.
For test [5] the target is unchanged. Nature of the test: BLI (Octet) blocking of ACE2 binding to captured sCoV2-RBD.

B1: CoV2-14 (antibody, V domains shown)
VH: EVQLQQSGPGLVKPSQTLSLTCAISGDSVSSNSAAWNWIRQSPSRGLEWLGRTYYRSKWYNDYAVSVKSRITINPDTSKNQFSLQLNSVTPEDTAVYYCAREEQQLVHDYYYYGMDVWGQGTMVTVSS
VL: QAVVTQPASVSGSPGQSITISCTGTSSDIGAYNYISWYQQHPGKAPKLIIYEVSNRPSGISYRFSGSKSGNTASLTISGLQAEDEANYYCSSYAGSISFGGGTKVTVL
What is called Kd is the free concentration of one partner at which half of the binding sites on the other are occupied at equilibrium, for simple one-to-one binding. The low end stands for tighter binding, the high end for weaker binding. As usually defined, the EC50 (read off the curve) is the concentration at which the effect is half-maximal. High values mean a less potent agent, low ones a more potent agent. Usually EC50 stands for the concentration that produces a half-maximal response. A low value points to a more potent agent. By IC50 is commonly meant the concentration needed to halve the response being measured. Low readings indicate higher potency, high ones lower potency. As to B1, in test [1], the Kd was 0.22 nM. Further, the EC50 (read off the curve) in test [2] was 0.5 nM. The EC50 in test [3] and in test [4] was 0.58 nM in each case. For the same molecule, the IC50 in test [5] was determined as 3.14 µg/mL.
